Reference: patent US7871610B2, “Antibodies to Tie1 ectodomain” (Dyax Corp., priority 2003, dated 2011)

Assays:
[1] = target: T1, recombinant human Tie1-Fc (Homo sapiens, UniProt P35590); experiment: BIAcore, coated E3 IgGs with recombinant human Tie-1 Fc; format: binding; settings: IgG, human Tie1 Fc
T1 construct: selected against the Tie1 extracellular domain fused to human Fc or to a histidine purification tag
T1 sequence (P35590 22-759 limits assumed): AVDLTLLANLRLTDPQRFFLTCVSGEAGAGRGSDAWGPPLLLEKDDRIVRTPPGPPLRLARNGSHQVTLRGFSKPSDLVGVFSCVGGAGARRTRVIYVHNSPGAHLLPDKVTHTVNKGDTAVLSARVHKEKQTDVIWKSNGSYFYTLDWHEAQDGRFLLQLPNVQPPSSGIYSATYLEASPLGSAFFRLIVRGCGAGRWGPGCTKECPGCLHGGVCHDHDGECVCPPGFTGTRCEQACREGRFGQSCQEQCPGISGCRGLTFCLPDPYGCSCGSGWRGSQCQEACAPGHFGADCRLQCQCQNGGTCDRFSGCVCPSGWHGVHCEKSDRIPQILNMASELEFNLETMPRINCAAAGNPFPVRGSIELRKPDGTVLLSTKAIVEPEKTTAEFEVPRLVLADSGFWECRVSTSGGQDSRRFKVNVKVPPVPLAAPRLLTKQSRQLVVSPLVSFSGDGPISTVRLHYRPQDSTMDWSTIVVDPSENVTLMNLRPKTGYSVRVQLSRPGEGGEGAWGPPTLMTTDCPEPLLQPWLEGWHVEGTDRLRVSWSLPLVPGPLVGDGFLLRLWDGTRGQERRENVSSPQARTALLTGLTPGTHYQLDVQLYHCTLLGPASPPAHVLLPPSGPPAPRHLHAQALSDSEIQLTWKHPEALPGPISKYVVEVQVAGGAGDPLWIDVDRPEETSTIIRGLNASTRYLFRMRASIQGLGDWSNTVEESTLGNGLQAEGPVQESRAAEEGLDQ
Protocol: The germlined E3 IgG1 stock solution 0.63 mg/ml was diluted 1/50 in a buffer of pH4.5 and the parental E3 IgG1 stock solution 0.56 mg/ml (2143-001) was diluted 1/50 in a buffer of pH 4.5. The IgG were directly coated onto a CM5 chip. The surface of the chips was activated with a 7 minute pulse of 0.05M NHS/0.2M EDC and the IgG was flowed over until 780RU germlined E3-IgG and 728 non germlined E3 IgG was coated onto the surface. All flow cells were subsequently deactivated with a 7 minute pulse of 1M ethanolamine hydrochloride pH 8.5. All analysis was performed in HBS buffer. Purified recombinant human Tie-1 Fc was diluted 1/28.7 in HBS to obtain a 400 nM stock solution. Serial dilutions were made to obtain 200 nM, 100 nM, 50 nM and 25 nM Tie-1 Fc stocks. For analysis of the association phase samples were injected at 30 μl/min for 8.3 minutes using kinject program. This was followed by a 40 minutes dissociation phase. Any antigen remaining associated to the surface was stripped from the IgG surface at a flow of 50 μl/min with two injections of 10 mM glycine pH 1.5 for 30 secods. All samples were run and analyzed in duplicate
Sensorgrams were analyzed using the simultaneous ka/kd fitting program with 1:1 model in the BIAEVALUATION™ software 3.1.

[2] = target: T1, recombinant human Tie1-Fc; experiment: BIAcore, parental and germlined E3b Fabs on human Tie-1/Fc; format: binding; settings: parental and germlined E3b Fabs, human Tie-1/Fc
Protocol: Recombinant human Tie-1/Fc was coated on a CM5 chip. The surface of the chip was first activated with a 7-minute pulse of 0.05 M NHS/0.2 M EDC, then Tie-1/Fc (2 μg/ml in 10 mM sodium acetate, pH 4.0) was run over the chip surface until 750 RUs were coated on the surface. All flow cells were subsequently deactivated with a 7-minute pulse of 1 M ethanolamine hydrochloride, pH 8.5. All further experiments were performed in HBS buffer.
The parental and the germlined E3b Fabs were prepared. A series of dilution (50, 25, 12.5, 6.25 and 3.125 nM) was prepared in HBS buffer. Samples were injected at 30 μl/min for 5.3 minutes using the KINJECT™ program. This was followed by a 10-minute dissociation phase, and the remaining Fab was stripped from the surface with a single 18-sec injection of 50 mM NaOH/1 M NaCl.
Sensorgrams were analyzed using the simultaneous ka/kd fitting program from the BIAEVALUATION™ software 3.1 assuming a 1:1 model.

Tie1 = Tie1 (Homo sapiens, UniProt P35590); experiment: Immunohistochemistry of matched human tumor and normal tissue sections; parameters: from tissue; host or cells: fresh frozen normal and tumor tissue (e.g. lung, kidney, skin, breast); settings: fresh frozen tissue
Chain of Tie1 (P35590 22-1138): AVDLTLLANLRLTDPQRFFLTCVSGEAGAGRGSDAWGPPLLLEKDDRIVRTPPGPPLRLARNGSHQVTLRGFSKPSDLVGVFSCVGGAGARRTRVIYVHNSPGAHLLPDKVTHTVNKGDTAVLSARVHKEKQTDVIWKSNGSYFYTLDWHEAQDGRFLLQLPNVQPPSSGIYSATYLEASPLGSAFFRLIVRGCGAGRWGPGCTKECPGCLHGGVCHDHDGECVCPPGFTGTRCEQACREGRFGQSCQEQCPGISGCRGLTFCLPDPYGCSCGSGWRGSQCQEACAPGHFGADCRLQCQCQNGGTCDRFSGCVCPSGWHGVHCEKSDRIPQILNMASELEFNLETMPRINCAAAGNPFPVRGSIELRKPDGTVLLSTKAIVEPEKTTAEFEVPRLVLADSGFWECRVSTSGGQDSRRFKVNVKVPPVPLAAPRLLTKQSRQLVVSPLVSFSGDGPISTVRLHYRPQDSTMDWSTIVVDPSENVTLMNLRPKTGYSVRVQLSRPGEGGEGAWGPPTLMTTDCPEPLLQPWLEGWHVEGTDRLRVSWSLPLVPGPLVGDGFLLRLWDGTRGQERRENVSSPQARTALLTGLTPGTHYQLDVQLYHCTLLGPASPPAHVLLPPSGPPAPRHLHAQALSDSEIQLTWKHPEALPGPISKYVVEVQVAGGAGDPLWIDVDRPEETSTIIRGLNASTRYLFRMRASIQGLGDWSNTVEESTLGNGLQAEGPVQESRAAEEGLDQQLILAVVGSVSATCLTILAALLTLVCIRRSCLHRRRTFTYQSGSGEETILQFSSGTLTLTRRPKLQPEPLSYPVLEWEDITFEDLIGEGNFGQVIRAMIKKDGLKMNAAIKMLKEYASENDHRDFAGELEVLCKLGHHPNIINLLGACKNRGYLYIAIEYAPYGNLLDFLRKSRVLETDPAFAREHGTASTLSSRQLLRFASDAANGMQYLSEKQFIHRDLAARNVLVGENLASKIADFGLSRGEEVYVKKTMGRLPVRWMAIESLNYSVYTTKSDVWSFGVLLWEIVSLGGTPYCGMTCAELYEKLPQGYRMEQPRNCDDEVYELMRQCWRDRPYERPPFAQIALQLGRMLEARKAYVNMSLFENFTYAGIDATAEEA
Protocol: The Tie-1 antibodies were biotinylated using the EZ-link Sulfo-NHS-SS-Biotin (Pierce, Cat. 21331). For Tie-1/Fc and Tie-1-His, the reaction was performed for 2 hours on ice in 50 mM sodium carbonate buffer, pH 9.6, in the presence of a 5-fold molar excess of biotinylating agent. For the antibodies, the reaction was performed for 2 hours on ice in PBS, in the presence of a 15-fold molar excess of EZ-link Sulfo-NHS-SS-Biotin. The reaction was stopped by the addition of Tris-HCl, pH 7.5 (50 mM final concentration) followed by a 1-hour incubation on ice. Samples were then dialyzed against PBS.
Various normal and tumor tissue sections were stained with biotinylated antibodies. A mouse monoclonal anti-Tie1 antibody (7e8) (Alitalo laboratory, University of Helsinki) was used as a positive control. Sections without primary antibody served as negative control. All samples were fresh frozen tissues and staining was performed with the TSA-kit (Perkin-Elmer Life Sciences). After acetone fixation (10-20 min, −20° C.) the slides were treated with 0.73% H2O2 for 10 min to reduce endogenous peroxidase activity followed by blocking for 30 min with TNB buffer. Sections ([…] thick) were incubated with primary antibodies (10 μg/ml) overnight at 4° C. Sections with the mouse monoclonal anti-tie1 antibody (7e8) were treated with biotinylated anti-mouse antibodies (VectaStain) before the addition of streptavidin-HRP. Signal was amplified by using a TSA kit and the visualized by AEC (235 ml NaAc, 15 ml AEC (stock solution: 1600 mg 3-amino-9-ethyl-carbazole and 480 ml N-dimethylformamide), 250 μl H2O2).

B1: E3: human anti-Tie1 antibody from Fab phage library; HC SEQ ID NO:114, LC SEQ ID NO:116 (antibody, V domains shown)
VH: EVQLLESGGGLVQPGGSLRLSCAASGFTFSMYGMVWVRQAPGKGLEWVSVISPSGGNTGYADSVKGRFTISRDNSKNTLYLQVNSLRAEDTAVYYCARAPRGYSYGYYYWGQGTLVTVSSASTKGPSVFPLAPSSKSTSGG
VL: DIQMTQSPLSLSASVGDRVTITCRASQGIGHYLAWYQQKPGKVPKLLIYTASTLQSGVPSRFSGSGSGTDFTLTINSLQPEDVATYYCQQFNSYPHTFGQGTRLDIK
modifications: Synthetically generated peptide
effect of germlining on binding activity [1]: minimal impact on the binding activity
effect of germlining on the affinity against Tie-1/Fc [2]: little or no effect on the affinity
staining of breast carcinoma (Tie1; 10 μg/ml): stained also other structures in addition to vessels
staining of hypernephroma tissue (Tie1; 10 μg/ml): clear staining
staining of kidney (Tie1; 10 μg/ml): stained kidney tubules in addition to the vessels
staining of lung carcinoma (Tie1; 10 μg/ml): stained structures other than vessels
staining of melanoma tissue (Tie1; 10 μg/ml): also stained other surrounding structures
staining of normal lung (large veins) (Tie1; 10 μg/ml): stained especially clearly the large veins
staining of normal skin (Tie1; 10 μg/ml): stained blood vessels very faintly
staining of veins and capillaries of mammary tissue (breast) (Tie1; 10 μg/ml): brightest staining
staining of vessels in normal tissues (tissue specificity) (Tie1; biotinylated IgG 10 μg/ml): stained vessels in the lung and kidney but not in the skin
